Tested on: MS2 coat protein
Assay: apparent KD of MS2 coat protein; designed switch direction (-1 OFF switch, 1 ON switch): -1; higher = weaker reporter binding
Outline: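 Designed RNA switches with common flanks were made on Illumina chips by stalled E. coli RNA polymerase. Titration with SNAP-549-labelled MS2 coat protein doubled from 0.7 or 1.5 nM up to 3 µM. Apparent KD is each design's median over clusters after curve-fitting normalised fluorescence.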

[1] = input ligand: microRNA oligo, concentration not stated
[2] = Eterna round: R95, input ligand: FMN 200 uM
[3] = Eterna round: R95, input ligand: microRNA oligo, concentration not stated
[4] = Eterna round: R95, input ligand: none

| Sequence | apparent KD of MS2 coat protein [1] [nM] | apparent KD of MS2 coat protein [2] [nM] | apparent KD of MS2 coat protein [3] [nM] | apparent KD of MS2 coat protein [4] [nM] | apparent KD of MS2 coat protein (input ligand: FMN 200 uM) [nM] | apparent KD of MS2 coat protein (input ligand: none) [nM] |
| --- | --- | --- | --- | --- | --- | --- |
| AGCUGUGGCCGAGGAUAUCUGUUUCAUAAAACCGAAAUAUAAUCGGACAUGAGGAUCACCCAUGUAGAGAAGGCGGUCUCAGCA [Eli eng2 - 097] (Eterna round: R96, puzzle: Exclusion NG 2) | 12 | – | – | – | – | – |
| AGGAAUGAAGGAUAUACAUGAGGAUCACCCAUGUAAAAGGAAAGAGGUGAUGGAGAUAGUAGAAGGUCAAGAAG [JR_Exclusion3_Sub004] (puzzle: Exclusion 3) | – | 94.2 | 135 | 204 | – | – |
| AGGAGCAGAGGGAGAUCCAACAUGAGGAUCACCCAUGUCUCAUAAGCUUUUUGCUCAUCUUAUUGUACCUUGGUGCU [Mat - Sensor v3 - turn-off var 1 - JL Mod - D26] (puzzle: Sensor v3, turn-off variant 1) | – | 35.7 | 14.3 | 37.9 | – | – |
| AGGGAUAAAGGAUAUACAUGAGGAUCACCCAUGUUGAGGAAAGUGAGAUGAGGAGGAAGUAGAAGGUUAGGCGA [JR_Exclu3_Sub085] (puzzle: Exclusion 3) | – | 37.2 | 37.7 | 47.4 | – | – |
| AGGGCACGAGGAUAUGUGAAACUGGACUUGAGGAUCACCCAAGUCGUCUUCGUGUCCAAAGCAGAAGGCGUGGCCA [Zaesce] (Eterna round: R97, puzzle: Exclusion 5) | – | – | – | – | 13.8 | 10.4 |
| AGGUGACAUGAGGAUCACCCAUGUAAGGAUAUACGGUUAGUGGAGAGUUGGAGGAGAGGUAGAAGGUACGGAGC [JR_Exclu1_Sub060] (puzzle: Exclusion 1) | – | – | 174 | – | – | – |
| AGGUGUUUCGUAGGAUAUGAGGAUCACCCAUAGAAGGAUAUCGAAAGAGAAGGUCUGAGGAUUACCCAGAAGGACGGGACGUCA [pwkr exNG2 2xF5 2xFMN.10] (Eterna round: R96, puzzle: Exclusion NG 2) | 103 | – | – | – | 570 | 145 |
| AGUAACAGAGGAUAUACUAUUUUAUGUAUUUAUUAUUUUAAACAUGAGGAUCACCCAUGUAGAAGGCUGAAUGA [JMF 97] (puzzle: Exclusion 2) | – | – | 21.1 | – | – | – |
| AGUAACAGAGGAUAUACUAUUUUAUGUGUUUAUUAUUUUGAACAUGAGGAUCACCCAUGUAGAAGGCUGAAUAA [JMF 91] (puzzle: Exclusion 2) | – | – | 27.2 | – | – | – |
| AGUAACCGUCACGAAAGUGAUGGUUACACAAGCAAAUGUACAUGAGGAUCACCCAUGUCCUCAUUUGCUCGUCUUGU [Sensor 3 - 48] (puzzle: Sensor v3, turn-off variant 2) | – | 101 | 398 | 121 | – | – |
| AGUAACCGUCACGAAAGUGAUGGUUACACAAGCAAAUGUACAUGAGGAUCACCCAUGUCCUCAUUUGUUCGUCUUAU [Sensor 3 - 47] (Eterna round: R96, puzzle: Sensor v3, turn-off variant 2) | 305 | – | – | – | 101 | 104 |
| AGUAACCGUCACGAAAGUGAUGGUUACACAAGCAAAUGUACAUGAGGAUCACCCAUGUCCUCAUUUGUUCGUCUUAU [Sensor 3 - 47] (puzzle: Sensor v3, turn-off variant 2) | – | 83.5 | 390 | 87.5 | – | – |
| AGUAACCGUCACGAAAGUGAUGGUUACACAAGCAAAUGUACAUGAGGAUCACCCAUGUCCUCGUUUGCUCGUCUUAU [Sensor 3 - 49] (puzzle: Sensor v3, turn-off variant 2) | – | 26.9 | 96.7 | 31.2 | – | – |
| AGUAAGCUAGGAUAUGCUUAGGGAAAGCCUUCCUUCCACAAACUUGAGGAUCACCCAAGUAGAAGGAGCUAAAU [jl-ex2.4.46 ViennaUCT mod] (Eterna round: R97, puzzle: Exclusion 2) | – | – | – | – | 15.4 | 13.5 |
| AGUAAUUCAAGAGGAUAUCACAUGAGGAUCACCCAUGUAUAGCGCGCUACGCUAGUCCUCGUAUUUGAGAAGGUUUGAUAAAAG [Mat - Exclusion NG 2 - Mod of JL - D76] (Eterna round: R96, puzzle: Exclusion NG 2) | 13.4 | – | – | – | 18.7 | 17.5 |
| AGUAAUUCAAGAGGAUAUCACAUGAGGAUCACCCAUGUAUAGCGCGCUACGCUAGUCCUCGUAUUUGAGAAGGUUUGAUAAAUG [JL ViennaUCT Quve mod 1] (Eterna round: R96, puzzle: Exclusion NG 2) | 12.5 | – | – | – | 14.4 | 17.1 |

| Sequence | apparent KD of MS2 coat protein [1] [nM] | apparent KD of MS2 coat protein [2] [nM] | apparent KD of MS2 coat protein [3] [nM] | apparent KD of MS2 coat protein [4] [nM] | apparent KD of MS2 coat protein (input ligand: FMN 200 uM) [nM] | apparent KD of MS2 coat protein (input ligand: none) [nM] |
| --- | --- | --- | --- | --- | --- | --- |
| AGUACAUUCACGAAAGUGAAUGUACAAUAAGCUUGUGGAACAUGAGGAUCACCCAUGUCCUCAUAAGCUCGUCUUAU [Mat - Sensor v3 - Turn-off var 2 - D31] (puzzle: Sensor v3, turn-off variant 2) | – | 16.1 | 68.7 | 14.6 | – | – |
| AGUACCUGAGUACAAUGUAACAUGAGGAUCACCCAUGUAAUUGGGUGAGAACAAGCUCACCGUUCGUCUUAAAUAAA [JL turnoff v1 80] (Eterna round: R96, puzzle: Sensor v2, turn-off variant) | 55.3 | – | – | – | 485 | 501 |
| AGUACUAACACGAAAGUGUUAGUACAAUAAGCUUGUGGAACAUGAGGAUCACCCAUGUCCUCAUAAGCUCGUCUUAU [JL-sv3-2.12 mat747 mod] (puzzle: Sensor v3, turn-off variant 2) | – | 16.8 | 71.4 | 16.9 | – | – |
| AGUACUAACACGAAAGUGUUAGUACUAUAAGCUUGUGUUACAUGAGGAUCACCCAUGUCCUCAUAAGCUCGUCUUAU [JL-sv3-2.15 mat747 mod] (puzzle: Sensor v3, turn-off variant 2) | – | 86.4 | 31.8 | 115 | – | – |
| AGUACUAACACGAAAGUGUUAGUGCAAUAAGCUUGUGAAACAUGAGGAUCACCCAUGUCCUCAUAAGCUCGUCUUAU [salish99_TOv2_r3_039] (puzzle: Sensor v3, turn-off variant 2) | – | 15.6 | 582 | 16.2 | – | – |
| AGUACUAACACGAAAGUGUUCGUACAAUAAGCUUGUGAAACAUGAGGAUCACCCAUGUCCUCAUAAGCUCGUCUUAU [salish99_TOv2_r3_037] (puzzle: Sensor v3, turn-off variant 2) | – | 16.6 | 810 | 15.6 | – | – |
| AGUACUAACACGAGAGUGUUAGUACUAUAAGCUUGUGUUACAUGAGGAUCACCCAUGUCCUCAUAAGCUCGUCUUAA [Mat - Sensor v3 - Turn-off var 2 - D64] (puzzle: Sensor v3, turn-off variant 2) | – | 33.3 | 185 | 35.8 | – | – |
| AGUACUAACACGAUAGUGUUAGUACUAUAAGCUUGUGUUACAUGAGGAUCACCCAUGUCCUCAUAAGCUCGUCUUAU [Mat - Sensor v3 - Turn-off var 2 - D78] (puzzle: Sensor v3, turn-off variant 2) | – | 95.6 | 118 | 101 | – | – |
| AGUACUAACACGGUUGUGUUAGUACAAUAAGCUUGUGAAACAUGAGGAUCACCCAUGUCCUCAUAAGCUCGUCUUAU [salish99_TOv2_r3_070] (Eterna round: R96, puzzle: Sensor v3, turn-off variant 2) | 464 | – | – | – | 15 | 17.3 |
| AGUACUAACACGGUUGUGUUAGUACAAUAAGCUUGUGAAACAUGAGGAUCACCCAUGUCCUCAUAAGCUCGUCUUAU [salish99_TOv2_r3_070] (puzzle: Sensor v3, turn-off variant 2) | – | 16.1 | 954 | 15.1 | – | – |
| AGUAGUUCAGGAUAUGAUGUUGAGUACAUGAGGAUCACCCAUGUAGGUCCUGGAUUUGCAUCAGAAGGGAAUAACU [JR_Ex5_Sub084] (Eterna round: R97, puzzle: Exclusion 5) | – | – | – | – | 59 | 26.7 |
| AGUAUGUUAGGAUAUUCCAUUGCUGUCAGCUCGGCGUCACAGAAGAAGGGACAUGAGGAUCACCCAUGUUAGGC [Eternabot (L1) Solution 96] (Eterna round: R97, puzzle: Exclusion 4) | – | – | – | – | 57.3 | 71.4 |
| AGUCAGGCGGUAGGAUAUCCAAACCGAGUGACCCUUACAUAACAUGAGGAUCACCCAUGUCGGUGGGAGAAGGGCCGUAAGGCA [Mat - Exclusion NG 2 - Mod of JL - D67] (Eterna round: R96, puzzle: Exclusion NG 2) | 349 | – | – | – | 517 | 113 |
| AGUCCGUCAGGAUAUGCAAUUGUGGACAUGAGGAUCACCCAUGUAACGUGGGCAUGGUUUGUAGAAGGGACGUGCA [EX5 #92] (Eterna round: R97, puzzle: Exclusion 5) | – | – | – | – | 129 | 95.3 |
| AGUCGGUCAGGAUAUGCAGACGUAGACAUGAGGAUCACCCAUGUGACGUGGGCCUGGUUUGUAGAAGGGACGAGCA [EX5 #83] (Eterna round: R97, puzzle: Exclusion 5) | – | – | – | – | 30.2 | 19.3 |
| AGUCUGCGAGGAUAUACAUGAGGAUCACCCAUGUGCGAGAAACUAGUGAGGUCGAUUGGUAGAAGGCGCGGACA [Mat - Exclusion 3 - Mod of JL D87] (puzzle: Exclusion 3) | – | 34.7 | 200 | 356 | – | – |
